Test results: the supplement of paper PMC7877785
± gives the uncertainty stated by the source.

Assay: self-splicing fitness, log relative to wild type (ln ratio); higher = more splicing; Tetrahymena group I intron in knt gene, E. coli kanamycin selection, DiMSum; sequences stand for … in CUCUCU…GGAGGGAAAAGUUAUCAGGCAUGCACCUGGUAGCUAGUCUUUAAACCAAUAGAUUGCAUCGGUUUAAAAGGCAAGACCGUCAAAUUGCGGGAAAGGGGUCAACAGCCGUUCAGUACCAAGUCUCAGGGGAAACUUUGAGAUGGCCUUGCAAAGGGUAUGGUAAUAAGCUGACGGACAUGGUCCUAACCACGCAGCCAAGUCCUAAGUCAACAGAUCUUCUGUUGAUAUGGAUGCAGUUCACAGACUAAAUGUCGGUCGGGGAAGAUGUAUUCUUCUCAUAAGAUAUAGUCGGACCUCUCCUUAAUGGGAGCUAGCGGAUGAAGUGAUGCAACACUGGAGCCGCUGGGAACUAAUUUGUAUGCGAAAGUAUAUUGAUUAGUUUUGGAGUACUCGUGGUCG
In short: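 DiMSum derived fitness as the error-weighted combination of fold changes across replicates, kanamycin versus no kanamycin, normalised to wild type. E. coli BL21(DE3) held the library, which randomised all eight P1ex-region intron nucleotides within the knt kanamycin-resistance gene on pET-22b(+). Six replicate transformations grew overnight at 37°C or 30°C on LB agar with or without 25 μg/mL kanamycin, also containing 100 μg/mL carbenicillin, 50 μM IPTG and 0.2% rhamnose, and pooled colonies were amplicon-sequenced on an Illumina HiSeq 2500.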

Sequence | self-splicing fitness (ln) (30 °C) | self-splicing fitness (ln) (37 °C)
CAGCAGCAAUAUUACGUCAA | -2.85 ± 0.21 | -3.37 ± 0.3
CAGCAGCAAUAUUACGUUGG | -1.91 ± 0.072 | -0.788 ± 0.084
CAGGAGCAAUAUUACGACCA | – | -1.27 ± 0.31
CAGGAGCAAUAUUACGAGAU | -3.82 ± 0.29 | -3.8 ± 0.39
CAGGAGCAAUAUUACGAGCU | -3.44 ± 0.47 | -2.52 ± 0.41
CAGGAGCAAUAUUACGAGGA | -3.55 ± 0.25 | -3.69 ± 0.29
CAGGAGCAAUAUUACGAGUA | – | -2.34 ± 0.42
CAGGAGCAAUAUUACGAGUU | -3.36 ± 0.43 | –
CAGGAGCAAUAUUACGAUGA | -1.76 ± 0.41 | –
CAGGAGCAAUAUUACGAUUC | – | -1.93 ± 0.38
CAGGAGCAAUAUUACGCUGA | -4.15 ± 0.23 | -3.13 ± 0.2
CAGGAGCAAUAUUACGGGAU | -3.55 ± 0.22 | -2.28 ± 0.23
CAGGAGCAAUAUUACGGGCC | -3.76 ± 0.42 | –
CAGGAGCAAUAUUACGGGGG | -2.9 ± 0.19 | -2.4 ± 0.25
CAGGAGCAAUAUUACGGUCG | 0.425 ± 0.084 | 0.544 ± 0.12
CAGGAGCAAUAUUACGGUGA | -2.96 ± 0.22 | -3 ± 0.27
CAGGAGCAAUAUUACGGUUC | -2.71 ± 0.43 | -1.74 ± 0.28
CAGGAGCAAUAUUACGUACU | – | -2.97 ± 0.38
CAGGAGCAAUAUUACGUCAU | – | -1.89 ± 0.33
CAGGAGCAAUAUUACGUCUU | -2.33 ± 0.095 | -2.16 ± 0.11
CAGGAGCAAUAUUACGUGCG | -1.56 ± 0.079 | -0.807 ± 0.088
CAGGAGCAAUAUUACGUGGA | -3.47 ± 0.2 | -3.3 ± 0.26
CAGGAGCAAUAUUACGUGGU | -4.08 ± 0.23 | -3.15 ± 0.23
CAGGAGCAAUAUUACGUUAC | -2.43 ± 0.13 | -3.01 ± 0.21
CAGGAGCAAUAUUACGUUAU | -3.4 ± 0.29 | -2.71 ± 0.3
CAGGAGCAAUAUUACGUUCC | -3.33 ± 0.23 | -2.04 ± 0.27
CAGUAGCAAUAUUACGACCC | -3.52 ± 0.44 | -0.507 ± 0.34

Sequence | self-splicing fitness (ln) (30 °C) | self-splicing fitness (ln) (37 °C)
CAGUAGCAAUAUUACGAGGU | – | -2.88 ± 0.34
CAGUAGCAAUAUUACGCACG | -1.27 ± 0.11 | -0.303 ± 0.17
CAGUAGCAAUAUUACGCCCA | -2.16 ± 0.26 | -0.476 ± 0.45
CAGUAGCAAUAUUACGCCCG | 0.504 ± 0.12 | -0.351 ± 0.15
CAGUAGCAAUAUUACGCCUC | -2.93 ± 0.46 | -2.4 ± 0.44
CAGUAGCAAUAUUACGCUCA | -0.118 ± 0.13 | 0.5 ± 0.17
CAGUAGCAAUAUUACGCUCU | -2.44 ± 0.18 | -0.957 ± 0.15
CAGUAGCAAUAUUACGGCGC | -1.59 ± 0.4 | -0.863 ± 0.25
CAGUAGCAAUAUUACGGCUC | -1.36 ± 0.14 | 0.325 ± 0.16
CAGUAGCAAUAUUACGGGGU | -4.35 ± 0.32 | -2.1 ± 0.22
CAGUAGCAAUAUUACGGGUA | -3.45 ± 0.4 | -1.01 ± 0.18
CAGUAGCAAUAUUACGUAGC | -3.32 ± 0.12 | -3.18 ± 0.17
CAGUAGCAAUAUUACGUCUA | -0.56 ± 0.064 | -0.256 ± 0.071
CAGUAGCAAUAUUACGUCUC | -3.93 ± 0.37 | -2.13 ± 0.27
CAGUAGCAAUAUUACGUUAC | -3.34 ± 0.47 | -2.76 ± 0.3
CAGUAGCAAUAUUACGUUCA | -0.986 ± 0.14 | -2.31 ± 0.23
CAUAAGCAAUAUUACGAAAA | – | -3.32 ± 0.34
CAUAAGCAAUAUUACGAAGG | -1.56 ± 0.11 | -1.55 ± 0.15
CAUAAGCAAUAUUACGAAGU | -3.15 ± 0.17 | -2.75 ± 0.29
CAUAAGCAAUAUUACGACCU | -2.63 ± 0.28 | -1.62 ± 0.33
CAUAAGCAAUAUUACGACUC | -3.48 ± 0.34 | -0.925 ± 0.14
CAUAAGCAAUAUUACGAGCG | 0.0605 ± 0.064 | 0.0464 ± 0.088
CAUAAGCAAUAUUACGAGGC | -3.54 ± 0.35 | -2.24 ± 0.35
CAUAAGCAAUAUUACGAGGG | -2.96 ± 0.17 | -2.53 ± 0.28
CAUAAGCAAUAUUACGAUCU | -2.67 ± 0.23 | -1.85 ± 0.24
CAUAAGCAAUAUUACGCACA | -2.05 ± 0.12 | -0.312 ± 0.11
CAUAAGCAAUAUUACGCAGG | -1.84 ± 0.18 | -1.22 ± 0.18

Sequence | self-splicing fitness (ln) (30 °C) | self-splicing fitness (ln) (37 °C)
CAUAAGCAAUAUUACGCCAA | -2.33 ± 0.17 | -2.69 ± 0.32
CAUAAGCAAUAUUACGCCAC | -2.8 ± 0.37 | -2.59 ± 0.39
CAUAAGCAAUAUUACGCGUC | -3.98 ± 0.26 | -2.15 ± 0.2
CAUAAGCAAUAUUACGCUCC | -2.87 ± 0.23 | -0.216 ± 0.49
CAUAAGCAAUAUUACGCUCG | -0.821 ± 0.11 | -0.252 ± 0.12
CAUAAGCAAUAUUACGGACG | 0.133 ± 0.093 | 0.568 ± 0.12
CAUAAGCAAUAUUACGGCAA | -2.52 ± 0.18 | -1.61 ± 0.18
CAUAAGCAAUAUUACGGGCA | -2.77 ± 0.18 | -1.8 ± 0.19
CAUAAGCAAUAUUACGGGGC | -3.25 ± 0.26 | -1.22 ± 0.16
CAUAAGCAAUAUUACGGUAA | -3.92 ± 0.46 | -2.77 ± 0.29
CAUAAGCAAUAUUACGGUCU | -2.8 ± 0.3 | -1.51 ± 0.2
CAUAAGCAAUAUUACGGUUA | -2.7 ± 0.16 | -2.05 ± 0.12
CAUAAGCAAUAUUACGGUUU | -4.02 ± 0.19 | -2.69 ± 0.17
CAUAAGCAAUAUUACGUAAU | -4.04 ± 0.28 | -2.16 ± 0.14
CAUAAGCAAUAUUACGUAGA | -3.68 ± 0.13 | -1.97 ± 0.12
CAUAAGCAAUAUUACGUCUC | -3.68 ± 0.3 | -2.52 ± 0.29
CAUAAGCAAUAUUACGUGAG | -3.12 ± 0.13 | -0.711 ± 0.099
CAUAAGCAAUAUUACGUUCA | -3.29 ± 0.13 | -1.95 ± 0.13
CAUAAGCAAUAUUACGUUCU | -3.28 ± 0.23 | -3.1 ± 0.3
CAUCAGCAAUAUUACGAACA | -2.82 ± 0.25 | -1.85 ± 0.21
CAUCAGCAAUAUUACGAACC | -2.59 ± 0.24 | -0.525 ± 0.46
CAUCAGCAAUAUUACGAGAG | -1.9 ± 0.072 | -0.955 ± 0.075
CAUCAGCAAUAUUACGAGAU | -3.84 ± 0.18 | -3.71 ± 0.21
CAUCAGCAAUAUUACGAGGC | -3.77 ± 0.2 | -2.64 ± 0.21
CAUCAGCAAUAUUACGAGGU | -3.46 ± 0.21 | -2.86 ± 0.22
